The text below walks through data of patent US20230340132A1, “ANTI-ADENOSINE RECEPTOR (A2aR) ANTIBODIES” (NA Biotech Corp, priority 2020, published 2023).

For experiment [1], the target named is human adenosine receptor A1 (human) (UniProt P30542). The experiment in a line: flow cytometry on HEK293T-A1 cells; anti-FLAG 2 ug/mL, positive control; duplicate 1. (In general: In flow cytometry, cells or beads pass a laser one at a time.)
Experiment [2] has the same target. The experiment in a line: flow cytometry on HEK293T-A1 cells; anti-FLAG 2 ug/mL, positive control; duplicate 2.
Experiment [3] deals with T1, human adenosine receptor A3 (human, UniProt P0DMS8 1-318).
T1 construct: whole, on cells; the tag is not described; also called A3R; human A3R
T1 sequence (looked up): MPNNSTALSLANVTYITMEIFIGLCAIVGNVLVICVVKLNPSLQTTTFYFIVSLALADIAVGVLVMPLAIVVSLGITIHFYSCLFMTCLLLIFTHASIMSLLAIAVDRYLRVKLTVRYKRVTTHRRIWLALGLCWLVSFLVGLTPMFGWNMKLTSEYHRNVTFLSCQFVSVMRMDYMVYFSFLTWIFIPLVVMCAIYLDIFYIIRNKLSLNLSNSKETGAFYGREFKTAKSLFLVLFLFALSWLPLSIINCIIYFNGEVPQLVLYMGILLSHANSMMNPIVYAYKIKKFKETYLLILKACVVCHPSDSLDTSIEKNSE
The experiment in a line: flow cytometry on HEK293T-A3 cells; anti-FLAG 2 ug/mL, positive control; duplicate 1.

For experiment [4], the target named is T1, human adenosine receptor A3. The experiment in a line: flow cytometry on HEK293T-A3 cells; anti-FLAG 2 ug/mL, positive control; duplicate 2.
Experiment [5] has as its target T2, human adenosine A2A receptor (A2aR) (human, UniProt P29274 1-412). The experiment in a line: flow cytometry on HEK293T-A2A cells; anti-FLAG 2 ug/mL, positive control; duplicate 1.
In experiment [6] the target is T2, human adenosine A2A receptor (A2aR). The experiment in a line: flow cytometry on HEK293T-A2A cells; anti-FLAG 2 ug/mL, positive control; duplicate 2.
Experiment [7] deals with T3, human adenosine receptor A2B (human, UniProt P29275 1-332).
T3 construct: whole, on cells; the tag is not described; also called A2bR; human A2bR
T3 sequence (looked up): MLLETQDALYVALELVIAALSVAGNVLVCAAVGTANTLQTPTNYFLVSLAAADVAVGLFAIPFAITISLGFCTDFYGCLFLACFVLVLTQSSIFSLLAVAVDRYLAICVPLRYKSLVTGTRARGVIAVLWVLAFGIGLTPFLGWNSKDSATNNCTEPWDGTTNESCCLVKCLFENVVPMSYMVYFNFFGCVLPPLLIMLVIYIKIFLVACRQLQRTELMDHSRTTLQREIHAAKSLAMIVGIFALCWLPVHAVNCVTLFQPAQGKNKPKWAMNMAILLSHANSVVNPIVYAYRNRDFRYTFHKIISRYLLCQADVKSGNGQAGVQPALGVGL
Nature of the experiment: flow cytometry on HEK293T-A2B cells; anti-FLAG 2 ug/mL, positive control; duplicate 1.

Experiment [8] addresses T3, human adenosine receptor A2B. The experiment in a line: flow cytometry on HEK293T-A2B cells; anti-FLAG 2 ug/mL, positive control; duplicate 2.
Experiment [9] addresses T4, mouse adenosine receptor A2A (mouse, UniProt Q60613 1-410).
T4 construct: whole, on cells; the tag is not described; also called mouse A2aR; mouse A2R
Nature of the experiment: flow cytometry on HEK293T-mA2A cells; anti-FLAG 2 ug/mL, positive control; duplicate 1.

Experiment [10] has as its target T4, mouse adenosine receptor A2A. Nature of the experiment: flow cytometry on HEK293T-mA2A cells; anti-FLAG 2 ug/mL, positive control; duplicate 2.
The target of experiment [11] is human adenosine receptor A1 (human) (UniProt P30542). The experiment in a line: flow cytometry on HEK293T-A1 cells; isotype control 10 nM; duplicate 1.
For experiment [12] the target is unchanged. The experiment in a line: flow cytometry on HEK293T-A1 cells; isotype control 10 nM; duplicate 2.
The target is the same in experiment [13]. The experiment in a line: flow cytometry on HEK293T-A1 cells; isotype control 50 nM; duplicate 1.
Experiment [14] shares this target. Nature of the experiment: flow cytometry on HEK293T-A1 cells; isotype control 50 nM; duplicate 2.
The target of experiment [15] is T1, human adenosine receptor A3. The experiment in a line: flow cytometry on HEK293T-A3 cells; isotype control 10 nM; duplicate 1.
Experiment [16] has the same target. The experiment in a line: flow cytometry on HEK293T-A3 cells; isotype control 10 nM; duplicate 2.
For experiment [17] the target is unchanged. The experiment in a line: flow cytometry on HEK293T-A3 cells; isotype control 50 nM; duplicate 1.
The target is the same in experiment [18]. Nature of the experiment: flow cytometry on HEK293T-A3 cells; isotype control 50 nM; duplicate 2.
For experiment [19], the target named is T2, human adenosine A2A receptor (A2aR). Nature of the experiment: flow cytometry on HEK293T-A2A cells; isotype control 10 nM; duplicate 1.
For experiment [20] the target is unchanged. The experiment in a line: flow cytometry on HEK293T-A2A cells; isotype control 10 nM; duplicate 2.
For experiment [21] the target is unchanged. The experiment in a line: flow cytometry on HEK293T-A2A cells; isotype control 50 nM; duplicate 1.
The target is the same in experiment [22]. The experiment in a line: flow cytometry on HEK293T-A2A cells; isotype control 50 nM; duplicate 2.
Experiment [23] concerns the target T3, human adenosine receptor A2B. Nature of the experiment: flow cytometry on HEK293T-A2B cells; isotype control 10 nM; duplicate 1.
For experiment [24] the target is unchanged. The experiment in a line: flow cytometry on HEK293T-A2B cells; isotype control 10 nM; duplicate 2.
The target is the same in experiment [25]. Nature of the experiment: flow cytometry on HEK293T-A2B cells; isotype control 50 nM; duplicate 1.
Experiment [26] shares this target. Nature of the experiment: flow cytometry on HEK293T-A2B cells; isotype control 50 nM; duplicate 2.
In experiment [27] the target is T4, mouse adenosine receptor A2A. Nature of the experiment: flow cytometry on HEK293T-mA2A cells; isotype control 10 nM; duplicate 1.
Experiment [28] has the same target. The experiment in a line: flow cytometry on HEK293T-mA2A cells; isotype control 10 nM; duplicate 2.
For experiment [29] the target is unchanged. Nature of the experiment: flow cytometry on HEK293T-mA2A cells; isotype control 50 nM; duplicate 1.
The target is the same in experiment [30]. Nature of the experiment: flow cytometry on HEK293T-mA2A cells; isotype control 50 nM; duplicate 2.
The next experiment concerns tumor. The conditions noted are these: mice treated with A2aR antagonist; background statement; cited from earlier work.
Experiment [31] deals with T2, human adenosine A2A receptor (A2aR). Nature of the experiment: cell-based or functional assay.
The target of experiment [32] is T1, human adenosine receptor A3. The experiment in a line: flow cytometry on HEK293T cells stably expressing human A3R.
For experiment [33], the target named is T3, human adenosine receptor A2B. Nature of the experiment: flow cytometry on HEK293T cells stably expressing human A2bR.
Experiment [34] addresses T4, mouse adenosine receptor A2A. Nature of the experiment: flow cytometry on HEK293T cells stably expressing mouse A2aR.
The target of a further experiment is T5, human A2aR (Homo sapiens, UniProt P29274).
T5 construct: expressed in transfected cells; host or cells: Expi293
Nature of the experiment: FACS screening of hybridoma clones on human A2aR-expressing Expi293 cells. The experiment is classed as binding. The conditions noted are these: antibodies from hybridoma clones. Here is the method: (§1) Serum titration was performed using Fluorescence-Activated Cell Sorting (FACS) pursuant to standard procedures. Human A2aR-expressing Expi293 cells were first added to 96-well plate (1×10^5 cells per well), 50 μl of serial diluted serum (1:50, 1;150, 1:450, 1:[…], 1:12150) from each individual mouse was incubated with cells for 30 min. on ice. After washing with FACS buffer (2% Fetal bovine serum, 2 mM EDTA in PBS), Alex Fluor 647-conjugated anti mouse IgG was added and incubated for 20 min on ice. Cells were resuspending with 100 μl FACS buffer after two times wash and ready for FACS analysis (BD LSR II Flow Cytometer, HTS). […] (MFI: mean fluorescence intensity).
(§2) Primary screening of the hybridoma supernatants in the 96-well plates was performed using the same FACS procedure as described for serum titration except following changes: 1) Human A2aR-expressing Expi293 cells (expressing GFP) were mixed at 1:1 ratio with parental Expi293 (no A2aR expression) and added to 96-well plates (2×10^5 cells per well), 2) 50 μl hybridoma supernatant transferred from each well of 96-well plates was incubated with cells for 30 min. on ice.
(§3) Sub-cloning was performed by limiting dilution method. In short, the positive wells identified by FACS were seeded into 96-well plate at an average density of 1 cell/well. The […] was placed in incubator for 7-10 days to allow the growth of the cells. The growth of cells was monitored periodically. At about day 4, the wells on the plate were observed under phase contrast microscopy and the wells which appeared to have single colony growing (i.e., only one clumping of hybridomas) were recorded. The cells from the single colony wells were screed by FACS using the same procedure as described for primary screening of hybridoma when the confluence of the cell reached about 50%.

A further experiment has as its system parental Expi293 cells. The experiment in a line: FACS screening of hybridoma clones on parental Expi293 cells. In kind it is binding. The settings on record: antibodies from hybridoma clones. Here is the method: as §1, §2, §3

Where a chain is given by its changes, count along the chain named.

Sequence of human adenosine receptor A1 (human) (P30542 whole entry): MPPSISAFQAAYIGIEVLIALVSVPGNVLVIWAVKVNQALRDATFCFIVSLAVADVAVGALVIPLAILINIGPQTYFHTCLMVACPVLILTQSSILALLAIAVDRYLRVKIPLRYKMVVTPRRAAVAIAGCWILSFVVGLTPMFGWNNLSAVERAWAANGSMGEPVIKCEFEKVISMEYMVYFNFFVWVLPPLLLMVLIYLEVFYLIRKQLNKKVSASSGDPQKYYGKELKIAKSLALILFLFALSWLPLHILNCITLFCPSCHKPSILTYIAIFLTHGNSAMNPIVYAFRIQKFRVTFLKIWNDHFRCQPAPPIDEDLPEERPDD
T4 sequence (Q60613 whole entry): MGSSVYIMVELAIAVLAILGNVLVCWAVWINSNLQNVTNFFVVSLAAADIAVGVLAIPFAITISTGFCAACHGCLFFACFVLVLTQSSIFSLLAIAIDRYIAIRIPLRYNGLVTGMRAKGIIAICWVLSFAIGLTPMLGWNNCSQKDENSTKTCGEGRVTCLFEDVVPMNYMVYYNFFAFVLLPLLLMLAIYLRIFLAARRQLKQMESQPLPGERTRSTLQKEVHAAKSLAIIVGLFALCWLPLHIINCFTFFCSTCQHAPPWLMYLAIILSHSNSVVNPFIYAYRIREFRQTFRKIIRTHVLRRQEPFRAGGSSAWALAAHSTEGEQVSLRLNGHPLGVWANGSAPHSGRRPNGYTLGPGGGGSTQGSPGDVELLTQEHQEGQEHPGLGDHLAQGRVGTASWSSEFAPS
T2 sequence (P29274 whole entry): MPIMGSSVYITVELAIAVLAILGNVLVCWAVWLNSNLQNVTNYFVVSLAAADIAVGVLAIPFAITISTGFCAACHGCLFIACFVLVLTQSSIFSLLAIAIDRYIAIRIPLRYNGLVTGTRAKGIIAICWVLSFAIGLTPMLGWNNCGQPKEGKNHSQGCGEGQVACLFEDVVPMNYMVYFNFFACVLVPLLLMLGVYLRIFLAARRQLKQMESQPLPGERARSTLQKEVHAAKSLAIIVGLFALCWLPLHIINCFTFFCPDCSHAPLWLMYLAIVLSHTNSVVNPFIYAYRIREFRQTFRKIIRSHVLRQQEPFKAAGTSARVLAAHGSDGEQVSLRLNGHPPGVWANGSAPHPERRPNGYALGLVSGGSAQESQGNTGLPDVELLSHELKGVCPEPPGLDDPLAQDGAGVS
T5 sequence (P29274 whole entry): as above

Turning to Anti-FLAG antibody (Abcam, ab72469), the Geo Mean in experiment [1] amounted to 53.3; in [2], 121; in [3] it was 48.2; in [4], 47.4; in experiment [5], 183; in [6], 223. For the same molecule, the Geo Mean worked out at 78.6 in experiment [7], 50.1 in experiment [8], 70.4 in experiment [9] and 105 in [10].

For mouse IgG2a isotype control (antibody), the Geo Mean was found to be 2.48 in experiment [11]; 2.24 in experiment [12]; 2.5 in experiment [13]; 2.7 in [14]; 1.9 in [15]; 1.81 in experiment [16]. The Geo Mean came to 1.87 in experiment [17]; 1.84 in experiment [18]; 2.97 in experiment [19]; 2.82 in [20]; 2.92 in experiment [21]; 2.83 in experiment [22]. In addition, the Geo Mean in [23] stood at 2.42; in [24], 2.41; in experiment [25], 2.33; in [26] it was 2.69; in [27], 2; in experiment [28] it was 2.39. The Geo Mean is 2.05 in experiment [29] and 2.06 in [30].

`Nc1nc(NCCc2ccc(O)cc2)nc2nc(-c3ccco3)nn12` [ZM241385]: the tumor growth result with tumor is listed as “significant delay in tumor growth”.

B1: anti-human A2aR monoclonal antibody 3F6-9G5 (mouse IgG2a format) (antibody, V domains shown)
VH: QVQLQQPGTELVKPGAPVRLSCKASGFAFTSYWMNWVRQRPGRGLEWIGRIDPSDSEAHYHHKFWGKATLTVDKSSSTVYIQLNGLTSEDSAVYYCLRSLYGKGDYWGHGTTLTVSS
VL: DVLMTQTPLSLSVRLGDQASISCRSSQSLVHRNGNTYLEWYLQRPGQSPKLLIYKVSNRFSGVPDRFSGSGSGTDFTLKISRVEAEDLGVYYCYQGSHVPLTFGSGTKLEIK
notes: Tested as whole mouse IgG2a / kappa, purified from hybridoma supernatant or made recombinantly in Expi293 cells
Regarding B1, in experiment [31], the “IC50 (M), cAMP-Glo assay of NECA-induced cAMP in HEK293 cells stably expressing human A2aR” value was found to be 1.57e-09 M. The binding result in experiment [32] is “no binding (tested: 2, 10 and 50 nM tested)”; in experiment [33] it was “no binding (tested: 2, 10 and 50 nM tested)”; in experiment [34], “no binding (tested: 2, 10 and 50 nM tested)”.

B2: anti-human A2aR monoclonal antibody 3F8-12E9 (antibody, mouse IgG2a, V domains shown)
VH: B1 VH with R19K, A28T, S31R, R38K, A58T, H61N, V79A, G85S, H109Q
VL: B1 VL with R14G, L29I, R32S
For B2, the “IC50 (M), cAMP-Glo assay of NECA-induced cAMP in HEK293 cells stably expressing human A2aR” value in experiment [31] was determined as 4.35e-09 M. Besides, in the experiment with human A2aR, the “binding to human A2aR-expressing cells (FIG. 2)” value was “specific binding”. Also, the “binding to parental Expi293 cells (FIG. 2)” value in the experiment with parental Expi293 cells is reported as “not to parental Expi293 cells”.
